From US20200247889A1 (published 2020) come the findings set out here.

Test [1] addresses T1, mouse TREM1 (mouse, UniProt Q9JKE2 21-230).
T1 construct: whole, on cells; also called mTREM1
T1 sequence (looked up): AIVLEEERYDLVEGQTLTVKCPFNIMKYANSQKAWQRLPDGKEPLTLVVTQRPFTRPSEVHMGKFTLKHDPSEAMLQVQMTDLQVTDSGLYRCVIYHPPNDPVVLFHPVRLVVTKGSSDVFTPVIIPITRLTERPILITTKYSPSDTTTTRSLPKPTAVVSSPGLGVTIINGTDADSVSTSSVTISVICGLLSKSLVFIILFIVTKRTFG
Kind of test: flow cytometry cross-blocking on HEK293 cells over-expressing mouse TREM-1. On the procedure: 100,000 HEK293 cells over-expressing mouse TREM-1 were plated in 96 well plates and dead cells were stained with Zombie Near Infrared (Biolegend, San Diego, Calif.). These cells were subsequently incubated with the indicated unconjugated anti-mouse TREM-1 antibodies at saturating concentrations for 15 mins on ice. Following incubation with these antibodies, cells were then stained with the indicated Alexa Fluor 647 conjugated antibodies for 30 mins on ice. The ability of conjugated antibodies to bind in the presence of unconjugated antibodies was assessed by Alexa 647 signal measured by flow cytometry (BD Fortessa X-14, BD Biosciences, San Jose, Calif.).
The sequences denote the linear amino acid stretches that comprise each domain and the numbering is according to UniProt sequence analysis and 3D modelling of mouse TREM1.

In test [2] the target is T1, mouse TREM1. Briefly: flow cytometry on HEK293 cells over-expressing mouse TREM-1. As for the experimental part:
100,000 HEK 293 parental or over-expressing mouse TREM-1 were plated in 96 well plates and dead cells were stained with Zombie Near Infrared (Biolegend, San Diego, Calif.). […] These primary unconjugated antibodies were detected with Alexa Fluor 647 conjugated anti-mouse Fcγ secondary antibodies (Jackson Immunoresearch, West Grove, Pa.). Alexa Fluor 647 signal was measured by flow cytometry (BD Fortessa X-14, BD Biosciences, San Jose, Calif.). EC50 values were calculated by curve fitting signal generated from antibodies binding to over-expressing cells over background fluorescence generated from HEK293 parental cells in Graphpad Prism (Graphpad Software, La Jolla, Calif.).

Test [3] concerns the target T1, mouse TREM1. Briefly: in vivo receptor occupancy, flow cytometry of tumor cells.
Protocol: CT26 (colon adenocarcinoma), LL/2 (lung adenocarcinoma), MC38 (colon adenocarcinoma), and RENCA (renal cell carcinoma) were harvested using StemPro Accutase Dissociation reagent (Gibco Corporation), washed in PBS and subcutaneously injected to female C57BL/6 (Jackson Laboratories) or BALB/c (Taconic Biosciences) mice at a dose between 8×10⁵-1×10⁶ cells in the right ventral flank. […] Antibody treatments were 15 mg/kg for both arms and mice were treated twice at the indicated time points. 48 hr after the second dose, mice were euthanized and the tumor and blood were harvested for immune population analysis and expression of TREM1. Immune population and expression analyses were performed by flow cytometry (BD Fortessa X-14, BD Biosciences).
In the next test the target is T2, cynomolgus TREM1 (cynomolgus, UniProt A0A2K5VHG8 21-233).
T2 construct: whole, on cells; also called cTREM1
T2 sequence: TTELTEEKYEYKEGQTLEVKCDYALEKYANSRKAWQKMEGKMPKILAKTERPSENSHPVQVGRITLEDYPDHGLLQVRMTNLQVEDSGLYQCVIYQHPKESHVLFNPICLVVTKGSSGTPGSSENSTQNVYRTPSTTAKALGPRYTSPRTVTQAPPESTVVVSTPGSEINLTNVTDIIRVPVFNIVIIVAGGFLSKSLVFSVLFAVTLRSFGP
Kind of test: flow cytometry on HEK293 cells over-expressing cynomolgus TREM-1. In general terms: In flow cytometry, cells or beads pass a laser one at a time.

Protocol for cynomolgus TREM1: Titrations of indicated unconjugated antibodies were incubated with these cells within a range of 0 ug/ml to 30 ug/ml in a 1:4 or 1:5 dilution range across 8 points. […] EC50 values were calculated by curve fitting signal generated from antibodies binding to over-expressing cells over background fluorescence generated from HEK293 parental cells in Graphpad Prism (Graphpad Software).

B1: Pi-4928 (antibody, mouse IgG2a, kappa, V domains shown)
VH: QVQLKESGPGLVQPSQTLSLTCTVSGFSITSSNVYWFRQPPGKGLEWMGNIWGDGSTDYNSSLKSRLTLSRDTSKNQVFLKINSLQSEDTATYFCTRSWEYYFDHWGQGVVVTVSS
VL: DIVLTQSPALAVSPGQRATLSCRASQSVTLSNVNLMNWYQQKPGQQPKLLIYHASNLASGIPTRFSGSGSGTDFTLTIDPVQADDIAAYYCQQSGESPRTFGGGTKVELKR
notes: Anti-mouse TREM1 mAb
Turning to B1, in the test with mouse TREM1 [1], the binding result was “binds”.

B2: afucosylated Pi-4928 (antibody, mouse IgG2a, kappa, V domains shown)
VH: QVQLKESGPGLVQPSQTLSLTCTVSGFSITSSNVYWFRQPPGKGLEWMGNIWGDGSTDYNSSLKSRLTLSRDTSKNQVFLKINSLQSEDTATYFCTRSWEYYFDHWGQGVVVTVSS
VL: DIVLTQSPALAVSPGQRATLSCRASQSVTLSNVNLMNWYQQKPGQQPKLLIYHASNLASGIPTRFSGSGSGTDFTLTIDPVQADDIAAYYCQQSGESPRTFGGGTKVELKR
modifications: afucosylated Fc glycan
Turning to B2, the binding result in the test with mouse TREM1 [2] was “binds”.

B3: Pi-9772 (antibody, mouse IgG2a, kappa, V domains shown)
VH: EVQLVESGGGLVQPGGSLRLSCAASGFDLSYSSMHWVRQAPGKGLEWVAYISPYSGYTSYADSVKGRFTISADTSKNTAYLQMNSLRAEDTAVYYCARHGSWSYGFSSGFDYWGQGTLVTVSS
VL: DIQMTQSPSSLSASVGDRVTITCRASQSVSSAVAWYQQKPGKAPKLLIYSASSLYSGVPSRFSGSRSGTDFTLTISSLQPEDFATYYCQQYAYYYPITFGQGTKVEIKR
notes: Anti-mouse TREM1 mAb
B3: in the test with mouse TREM1 [1], the binding result is recorded as “binds”.

B4: afucosylated Pi-9772 (antibody, mouse IgG2a, kappa, V domains shown)
VH: EVQLVESGGGLVQPGGSLRLSCAASGFDLSYSSMHWVRQAPGKGLEWVAYISPYSGYTSYADSVKGRFTISADTSKNTAYLQMNSLRAEDTAVYYCARHGSWSYGFSSGFDYWGQGTLVTVSS
VL: DIQMTQSPSSLSASVGDRVTITCRASQSVSSAVAWYQQKPGKAPKLLIYSASSLYSGVPSRFSGSRSGTDFTLTISSLQPEDFATYYCQQYAYYYPITFGQGTKVEIKR
modifications: afucosylated Fc glycan
Turning to B4, the binding result with mouse TREM1 [2] is given as “binds”.

B5: Pi-9067L (antibody, mouse IgG2a, kappa, V domains shown)
VH: EVQLVESGGGLVQPGGSLRLSCAASGFDIYSYSIHWVRQAPGKGLEWVAYIYPSYGYTSYADSVKGRFTISADTSKNTAYLQMNSLRAEDTAVYYCARGAVAALDYWGQGTLVTVSS
VL: DIQMTQSPSSLSASVGDRVTITCRASQSVSSAVAWYQQKPGKAPKLLIYSASSLYSGVPSRFSGSRSGTDFTLTISSLQPEDFATYYCQQYGVSGYSLITFGQGTKVEIKR
notes: Anti-mouse TREM1; also called WT Pi-9067L; fucosylated PI-9067L
On to B5, for which the binding result in the test with mouse TREM1 [1] is on record as “binds”.

B6: Pi-9069L (antibody, mouse IgG2a, kappa, V domains shown)
VH: EVQLVESGGGLVQPGGSLRLSCAASGFDLYSSYIHWVRQAPGKGLEWVASIYPSYGYTYYADSVKGRFTISADTSKNTAYLQMNSLRAEDTAVYYCARSHSYVHGAMDYWGQGTLVTVSS
VL: DIQMTQSPSSLSASVGDRVTITCRASQSVSSAVAWYQQKPGKAPKLLIYSASSLYSGVPSRFSGSRSGTDFTLTISSLQPEDFATYYCQQYWWVPAAPITFGQGTKVEIKR
For B6, the binding result with mouse TREM1 [3] is given as “binds”.

B7: afucosylated Pi-9067L (antibody, mouse IgG2a, kappa, V domains shown)
VH: EVQLVESGGGLVQPGGSLRLSCAASGFDIYSYSIHWVRQAPGKGLEWVAYIYPSYGYTSYADSVKGRFTISADTSKNTAYLQMNSLRAEDTAVYYCARGAVAALDYWGQGTLVTVSS
VL: DIQMTQSPSSLSASVGDRVTITCRASQSVSSAVAWYQQKPGKAPKLLIYSASSLYSGVPSRFSGSRSGTDFTLTISSLQPEDFATYYCQQYGVSGYSLITFGQGTKVEIKR
modifications: afucosylated Fc glycan
notes: Same polypeptides as Pi-9067L, afucosylated; also called Afuc-Pi-9067L; Afuc-PI-9067L
Turning to B7, the binding result with mouse TREM1 [2] is reported as “binds”.

B8: Pi-8421 (antibody, V domains shown)
VH: EVQLVESGGGLVQPGGSLRLSCAASGFDISYSSIHWVRQAPGKGLEWVASIYSSYGSTYYADSVKGRFTISADTSKNTAYLQMNSLRAEDTAVYYCARYYYSHAGWYVSGYWPAIDYWGQGTLVTVSS
VL: DIQMTQSPSSLSASVGDRVTITCRASQSVSSAVAWYQQKPGKAPKLLIYSASSLYSGVPSRFSGSRSGTDFTLTISSLQPEDFATYYCQQSSYSLITFGQGTKVEIK
With B8, the binding result with cynomolgus TREM1 is recorded as “no binding (tested: titrated within 0 ug/ml to 30 ug/ml)”.
